Sequences and labels used below:
B1: N-612-004 (antibody, V domains shown)
VH: EVQLVESGGGLVQPGGSLRLSCAASGFTFSSYYMHWVRQAPGKGLEWVSAISGSGGYTYYADSVKGRFTISRDNSKNTLYLQMNSLRAEDTAVYYCARDRDHAYDWGFDVWGQGTLVTVSS
VL: DIQMTQSPSSLSASVGDRVTITCQASQDISNYLNWYQQKPGKAPKLLIYDASNLETGVPSRFSGSGSGTDFTFTISSLQPEDIATYYCQQWADWPLTFGQGTKVEIK
B2: N-612-056 (antibody, V domains shown)
VH: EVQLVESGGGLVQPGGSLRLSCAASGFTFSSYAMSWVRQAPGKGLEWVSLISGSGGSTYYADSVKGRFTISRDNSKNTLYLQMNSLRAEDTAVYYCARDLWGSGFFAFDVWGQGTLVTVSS
VL: B1 VL with W91D, D93G, W94T
B3: N-612-017 (antibody, V domains shown)
VH: EVQLVESGGGLVQPGGSLRLSCAASGFTFSSYAMHWVRQAPGKGLEWVSAIWGSGSNTYYADSVKGRFTISRDNSKNTLYLQMNSLRAEDTAVYYCARGRDLAAFTKTAFDVWGQGTLVTVSS
VL: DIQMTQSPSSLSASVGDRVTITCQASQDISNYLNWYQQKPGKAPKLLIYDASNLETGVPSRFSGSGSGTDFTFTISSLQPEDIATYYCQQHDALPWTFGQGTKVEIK
B4: N-612-014 (antibody, V domains shown)
VH: EVQLVESGGGLVQPGGSLRLSCAASGFTFSSYAMTWVRQAPGKGLEWVSYISGSGGGTYYADSVKGRFTISRDNSKNTLYLQMNSLRAEDTAVYYCARDRWASGWLAFDVWGQGTLVTVSS
VL: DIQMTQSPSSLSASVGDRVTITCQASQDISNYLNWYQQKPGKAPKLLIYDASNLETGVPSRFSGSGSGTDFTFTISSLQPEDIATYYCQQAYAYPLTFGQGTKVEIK

Changes are numbered by the printed parent chain.

Four molecules from patent EP4335870A1 (NantCell, Inc., dated 2024) can be followed below.

The experiment concerns the target SARS-CoV-2 Spike S1, wildtype (Table 13) (SARS-CoV-2, UniProt P0DTC2 16-685).
B1 came in with a Kd of 0.62 nM.

Turning to B2, the Kd worked out at 4.5 nM.

Turning to B3, binding was characterised by a dissociation constant (Kd) of 12 nM.

In turn, B4 yielded a dissociation constant Kd of 11.4 nM.
